# From US20130260436A1, “Methods of Identifying and Characterizing Natural Product Gene Clusters” (Victoria LInk Limited, priority 2010, published 2013)
# B1: slPsT1: mBpsA with T-domain from pspph1926 gene of P. syringae 1448a; SEQ ID NO: 9 (protein)
# chain: MTLQETSVLEPTLQGTTTLPGLLAQRVAEHPEAIAVAYRDDKLTFRELASRSAALADYLEHLGVSADDCVGLFVEPSIDLMVGAWGILNAGAAYLPLSPEYPEDRLRYMIENSETKIILAQQRLVSRLRELAPKDVTIVTLRESEAFVRPEGTEAPAARSARPDTLAYVIYTSGSTGKPKGVMIEHRSIVNQLGWLRETYAIDRSKVILQKTPMSFDAAQWEILSPANGATVVMGAPGVYADPEGLIETIVKHNVTTLQCVPTLLQGLIDTEKFPECVSLQQIFSGGEALSRLLAIQTTQEMPGRALINVYGPTETTINSSSFPVDPADLDEGPQSISIGSPVHGTTYHILDKETLKPVGVGEIGELYIGGIQLARGYLHRDDLTAERFLEIELEEGAEPVRLYKTGDLGQWNNDGTVQFAGRADNQVKLRGYRVELDEISLAIENHDWVRNAAVIVKNDGRTGFQNLIACIELSEKEAALMDQGNHGSHHASKKSKLQVKAQLSNPGLRDDAELAARPAFDLEGAEPTPEQRARVFARKTYRFYEGGAVTQADLLGLLGATVTAGYSRKAADLAPAELGQILRWFGQYISEERLLPKYGYASPGALYATQMYFELEGVGGLKPGYYYYQPVRHQLVLISEREATGKATAQIHFIGKKSGIEPVYKNNILEVLEIETGHMVGLFEQILPAYGLDIHDRAYEPAVKDLLDVADEDYYLGTFELVPHAGARDDQAEVYVQTHGGKVAGLPEGQYRYENGELTRFSDDIVLKKHVIAINQSVYQAASFGISVYSRAEEEWLKYITLGKKLQHLMMNGLNLGFMSSGYSSKTGNPLPASRRMDAVLGANGVDSAPMYFFVGGRISDEQIGHEGMREDSVHMRGPAELIRDDLVSFLPDYMIPNRVVVFDRLPLSANGKIDVKALAASDQVNAELVERPHVAPRTEFEQRLAALWEQVLQVERVGLNDNFFALGGHSLLAVSLAGRIRETFDVSIKLHDFLLMQTLGELADFMRREVAQESSRFVRLHAETGKARPVICWPGLGGYPMNLRSLAGEIGLGRSFYGVQSYGINEGETPYETITEMAKKDIEALKEIQPAGPYTLWGYSFGARVAFETAYQLEQAGEKVDNLFLIAPGSPKVRAENGKVWGREASFANRGYTTILFSVFTGTISGPDLDRCLETVTDEASFAEFISELKGIDVDLARRIISVVGQTYEFEYSFHELAERTLQAPISIFKAVGDDYSFLENSSGYSAEPPTVIDLDADHYSLLREDIGELVKHIRYLLGE
# B2: slPvdD2: mBpsA with T-domain from second module of pvdD of P. aeruginosa PAO1; SEQ ID NO: 7 (protein)
# chain: MTLQETSVLEPTLQGTTTLPGLLAQRVAEHPEAIAVAYRDDKLTFRELASRSAALADYLEHLGVSADDCVGLFVEPSIDLMVGAWGILNAGAAYLPLSPEYPEDRLRYMIENSETKIILAQQRLVSRLRELAPKDVTIVTLRESEAFVRPEGTEAPAARSARPDTLAYVIYTSGSTGKPKGVMIEHRSIVNQLGWLRETYAIDRSKVILQKTPMSFDAAQWEILSPANGATVVMGAPGVYADPEGLIETIVKHNVTTLQCVPTLLQGLIDTEKFPECVSLQQIFSGGEALSRLLAIQTTQEMPGRALINVYGPTETTINSSSFPVDPADLDEGPQSISIGSPVHGTTYHILDKETLKPVGVGEIGELYIGGIQLARGYLHRDDLTAERFLEIELEEGAEPVRLYKTGDLGQWNNDGTVQFAGRADNQVKLRGYRVELDEISLAIENHDWVRNAAVIVKNDGRTGFQNLIACIELSEKEAALMDQGNHGSHHASKKSKLQVKAQLSNPGLRDDAELAARPAFDLEGAEPTPEQRARVFARKTYRFYEGGAVTQADLLGLLGATVTAGYSRKAADLAPAELGQILRWFGQYISEERLLPKYGYASPGALYATQMYFELEGVGGLKPGYYYYQPVRHQLVLISEREATGKATAQIHFIGKKSGIEPVYKNNILEVLEIETGHMVGLFEQILPAYGLDIHDRAYEPAVKDLLDVADEDYYLGTFELVPHAGARDDQAEVYVQTHGGKVAGLPEGQYRYENGELTRFSDDIVLKKHVIAINQSVYQAASFGISVYSRAEEEWLKYITLGKKLQHLMMNGLNLGFMSSGYSSKTGNPLPASRRMDAVLGANGVDSAPMYFFVGGRISDEQIGHEGMREDSVHMRGPAELIRDDLVSFLPDYMIPNRVVVFDRLPLSANGKIDVKALAASDQVNAELVERPYRAPGSELEQRIAAIWAEILGVERVGLDDNFFELGGHSLLLLMLKERIGDTCQATLSISQLMTHASVAEQAACIEREVAQESSRFVRLHAETGKARPVICWPGLGGYPMNLRSLAGEIGLGRSFYGVQSYGINEGETPYETITEMAKKDIEALKEIQPAGPYTLWGYSFGARVAFETAYQLEQAGEKVDNLFLIAPGSPKVRAENGKVWGREASFANRGYTTILFSVFTGTISGPDLDRCLETVTDEASFAEFISELKGIDVDLARRIISVVGQTYEFEYSFHELAERTLQAPISIFKAVGDDYSFLENSSGYSAEPPTVIDLDADHYSLLREDIGELVKHIRYLLGE
# Tests used:
# [1] = test system: wild type BpsA reporter expressed in E. coli BL21(DE3) from a pCDFDuet-based plasmid (slBPSA)
# [2] = test system: BpsA, single module non-ribosomal peptide synthetase of Streptomyces lavendulae ATCC 11924, purified recombinant 6His-tagged protein (apo form)
# [3] = test system: E. coli harbouring an activating PPTase; test: In vivo pigment synthesis activity of BpsA derivatives relative to wild type BpsA; assay type: cell-based; conditions: E. coli, supernatant A590
# Excerpt: A detailed description of the method used for generation of mBpsA derivatives is given in Section 4.15. Briefly, a plasmid containing bpsA lacking its native T-domain (pBPSA3) was created. This plasmid contained restriction enzyme sites which were subsequently used to introduce foreign T-domain sequence. Foreign T-domains were then amplified from the chromosomal DNA of their host organisms and introduced into pBPSA3 to generate mBpsA derivatives which contained T-domains from foreign NRPS proteins in place of the native T-domain. Only the final embodiment of the T-domain swapping platform is described in this application. This embodiment is the result of rational in-silico design as well as trial and error, which are not described. Using this final platform, five different mBpsA derivatives were generated and subsequently assessed for in vivo pigment synthesis capacity in E. coli harbouring an activating PPTase. Table 3.1 gives a summary of the mBpsA derivatives generated as well as their in vivo pigment synthesis activities relative to wild type BpsA. The derivation of in vivo pigment synthesis activity was as described in 4.10.
# For second tier screening, up to 45 improved clones, along with a positive and negative control, were stored as duplicate glycerol stocks in a 96wp. From this plate duplicate overnight cultures were established in LB supplemented with 0.4% glucose and appropriate antibiotics. […] Overnight cultures were grown for 16-20 h (37° C. 200 rpm) before transfer of 20 μl of each culture into a fresh well containing 130 μL LB supplemented with 115 mM L-Gln, 0.6 mM IPTG and appropriate antibiotics. Assay plates set up in this fashion contained duplicate cultures for each clone from two separate overnights. Assay plates were then wrapped in foil and incubated for 6-24 h (18° C., 200 rpm), depending on activity of improved clones. After incubation cells were collected at the corner of each well by centrifugation and OD 590 values determined using a microplate reader. Assays were repeated at least twice before determination of clones for sequence analysis.
# In vivo pigment synthesis efficiencies for recombinant BpsA proteins described in Section 3.2 were derived from three separate assays. This was necessary due to the fact that pigment synthesis of wild type BpsA saturate before activity of mBpsA derivatives was detectable. Replicate cultures for determination of in vivo pigment synthesis activity were established from overnight starter cultures in a 96 wp as described in Section 4.9.3 The values presented are derived as follows: quadruplicate values for WT BpsA and oBpsA (mutant with reduced activity) were determined after 3 h, at which point pigment production was not saturated for WT. A separate quadruplicate assay was then run to obtain a value for slEntF by comparison to oBpsA after 12 h. Quadruplicate values for slPsT and slPvdD2 were then obtained in a separate assay by comparison to slEntF after 12 h.
Molecule,production of indigoidine on co-expression in E. coli BL21(DE3) [1],"Km (BpsA as variable substrate), BpsA coupled indigoidine assay [2] [µM]","kcat (BpsA as variable substrate), BpsA coupled indigoidine assay [2] [min⁻¹]","kcat/Km (BpsA as variable substrate), BpsA coupled indigoidine assay [2] [min⁻¹ µM⁻¹]",Relative activity (in vivo pigment synthesis relative to wild type BpsA) [3] [%]
"PP1183, putative phosphopantetheinyl transferase of Pseudomonas putida KT2440","co-expression of BpsA with any of the three PPTases selected (Sfp, PcpS and PP1183) resulted in substantial production of indigoidine",8.6,11.1,1.29,
"Sfp, phosphopantetheinyl transferase of Bacillus subtilis subsp. spizizenii ATCC6633","co-expression of BpsA with any of the three PPTases selected (Sfp, PcpS and PP1183) resulted in substantial production of indigoidine",3.3,2.14,0.65,
B1,,,,,~5
B2,,,,,~5
